Test results taken from the domain aggregation screens of Martell et al. (2025).

Assay: soluble fraction after stress (log2 fold change); higher = more stays soluble; pooled small domains, quantitative proteomics
Details: stress: pH 4
Procedure, shortened: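 Pooled custom libraries of small protein domains were subjected to pH 4 and measured by high-throughput quantitative proteomics. The log2 fold change in soluble amount per domain is reported, higher values meaning more remained soluble. This is used as a measure of aggregation propensity.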

Row | Sequence | soluble fraction (log2)
1 | HMISKQQRQALILDIIQKQSITSQEALLTELQRHHVMTTQTTVSRDIRALGIVRIKDVNGELSYQQLQ | -0.0545
2 | HMISKRFQIDEDNSNKRIDIFLTQSLDSISRGIVQQLILENKVEVNGGPVKRNYLIKIGDVIDVKIDL | -0.608
3 | HMISKTFEINEDNINNRLDIFLANQFDNLSRGIVQKLIESHSVSVSGNFVEKDYKLKLGDIIDVEINLS | -0.853
4 | HMISLNEDQKLAILNEWNQRPDDPPFIKELIELVFPDIPEEAKTGRSRYGIAIKKFLAEKSLQAKV | -0.554
5 | HMISLPSYIREEATEVYNRLHDLGLEYTSLDVNDDSIPKGYVVRTVPEAGASVPAGQVVTVYVSLG | -0.231
6 | HMISQLRGKVLGTDRDALVIDVGGVGFRVSATAGARALAGQSGNEARLFTEMVVREDSIDLFGF | -0.245
7 | HMISRKIKELRLSHDLTQKDLADYLNLTPKMVSFYELGQRVPPSDIILKLAEKFHVSTDYLLGNEDRP | -0.126
8 | HMITDNEFLRIVSFLKQRYGIDMSQKKVIMNGRLENYLKSGGWSSFDEYMNDVEKDTSGDLEKTLVNFLTT | -0.853
9 | HMITETIGANIKTLRDKFRMSQQDLASKMNTARPVISNWENGKTEPSSSQLLKLAKIFDTSTDKILGNV | 0.345
10 | HMITKEDVANKKVNLLFFGNFHKMKLPDFEWGITEMMQDRDYLYGSLTKDLYFLGLVLDRKYKI | 0.124
11 | HMITKENYLEKIKEIKVNEFPASMRELYDFFNEATRNGTDWSAYEEGNVKYVVDAYLERLNLLYKSN | -0.892
12 | HMITLYIHNLEEVGKRLDHYLVSNLDDHSRSQIQSWIRSGSILVNDRSVKTGYSLELNDQILINPPK | -0.15
13 | HMITNSTEIEAMIDSLIKENPEQAEQYRNGNTKVVGWFVGQMMKASKGKANPQVVGDLLAQKLVG | -0.821
14 | HMIVAHEINRHLGESDQPVEIPDNRREGAVAELLKTFNNDDAFREMDDGKYEVALDGEKVREAARSLLA | -0.0196
15 | HMIVDARNREINLGSHVRYVDTGTVGEVTDSKVENDASWVKIDKTNLWYLANKLELLNDEDFKT | -0.517
16 | HMIVDINDVRIDKYIADNTDYSRNLILNLIKNGDILVNDSKIKPSYKVKQGDKITINNVKTD | -0.284
17 | HMIVKQPDIRKQELLDIGVRLYFEAGEKGVSIQQVVKQAGVATGLFYYYFSSKDAFLDEALNDYID | -0.0638
18 | HMIVLPGEELEVHIVQEGKEDGQGVAYLDDGTMVVVEGGRPYVDSFAYVAVTRVLQTGAGRIIFAHPTR | -0.108
19 | HMIYNSGTTDSRGEAIVGGYLVTVTDTDTKDPVANAAVTLHKDNSISIRLPNSRLLDYADQTTVTVQLV | -0.00411
20 | HMKAEKEIEKIKFTIYNEFKRKQEENHFLPPWDGTKMLRQFVLGVVANNPKYQHVNTDILYRDLLLLYYQ | -0.166
21 | HMKAFTKKELQDLVLNIFRASPTTNYNYKQLYKLIRGKDPEIKTLIIAVLLGLEKNGSILQMRPGKYKFS | -0.268
22 | HMKALDTVLSEIPGLGPVRIKQLLKVFGSVDAIRKASLQDLQQIEGIGPKLAQTIYEYFHQP | -0.328
23 | HMKALYNLDYEKPLSGSYYTETTARAAVPTDIRKLGLIITYKTDATTNITEQFVGSSISAWTTSGNWKSLG | 0.105

Row | Sequence | soluble fraction (log2)
24 | HMKAPPLTDREKEILRWVAAGLQNKEIAHKLGISLATVRNHIHNILEKLDVHSKLEAVSLAFRQGWVS | -0.133
25 | HMKASEMKKGQTIKIDGVLYVIVDFQHVKLSKGGAVYQTKLRNLAAGGIRDIRIRAEEVLEDA | -0.515
26 | HMKDITPASEDQLKAITDLMLKVNGEWSDAFFTFISKKFNHQISSPEQLTTFEANTIIDMLRKKAEG | 0.22
27 | HMKDLDSLSQEAKSVYAVFSDKPIHIDDIKRKTGLDFSKLFKAVTELELAELISSGEGKMYSL | -0.858
28 | HMKDLTIRQQQFLNYIKDHLSLTGFPPTRSDIANEMGFKSPNAAEDHLRALARKGAIEIVPGTSRGIRLP | 0.0783
29 | HMKDMKISTKNLLQELAKNYPDQTSFRKNVIETTARAMGYTGKDFYPLLTTDNRVKIGTYDLATFLRSI | -0.122
30 | HMKDNPNETFERIAGKITRTLRSGPVRIQQLDLLFSESAGKVVDVLRAMAENGEVLIKDDTIQLNGNN | -0.261
31 | HMKDTFHNLSEEKRERIIRAALGEFAASGYEKATLDGVVQAAGISKGGLYEYISSKEDLFRYLLEYSYD | -1.43
32 | HMKDTNENLMKMLALLIHAAKIDENYSDEEKELIVNFAEMSSKENLNREQILSIIKSAEEYE | -0.673
33 | HMKEADVRKNEILDAAGILFSEKGYDNTSVTDIMNAVGFAKGTLYHHFKSKEDIMDALIKRQTD | -0.61
34 | HMKEAISIYPNPVKDILTIRGMDETSGVSFKLYDVTGNLLLESTHSELDMSGLNRGVYFLDIAGDVRKVVK | -1.07
35 | HMKEEDLPREYTDILGNSVHERLNIMIHDIIEHSQDKPEVAMSPEREEAMHGLRRWMFDHVYH | -0.307
36 | HMKEEVEILGGKATIYTNDYGVWQFRLWLTTDNKYVRKSLRTKVKDYAITEGEKLYIQIRSDIEKGIKYY | -0.077
37 | HMKEEVSVPDIKGMTYEEAEAKLAKYDLEIEKGETVKASEQYEEGQISSQEPEAGSKVKEGSTIVVDVVE | -0.174
38 | HMKEFSFNGGKVIMNYEADRIQIKHDSRPNQEVITLMKRNGFKWSPTNQAWQRQITGNAIYVTKNLLKS | -0.0347
39 | HMKEGGGYGQLRLKEAAIQHAFDLQNALQFIAERGYQAHENTTLKEAANALNLKPIELLELLKSSQ | -0.574
40 | HMKEIDVPNVVGASENAARKLLESYGFQVEVQWENGERVDNAVVKSYSPNGSAKSGSTVTIVLGT | -0.293
41 | HMKEINFTIEESAKGRLDKVIAENVADLTRSQVQSLIKKGQILVNDAPTTNRYQVKPNDQVIIKLPDPV | 0.0442
42 | HMKEKLGEFENVFLSVDELQKLKSKLGAETESYIERLSNYIASSGKKYKSHYATILSWTQKDTK | -0.644
43 | HMKELASKYEISEYMKFLIENLDKSNFFYPIEKRESMINNIFSIYSKADLSKKELNMLWGMLKKLR | -1.06
44 | HMKELTELIEKIKLRRLELGLSYQELSDLTGINKSTLQRYETGFIKKVPINQVQIIAKALNVTPGYLMG | -0.718
45 | HMKEMTAKQIDMFSDKLSKLESFQSHYIADAGVSVTEYKQAIAAKLQDQFYVEAWGKYLADVGFT | -1.13
46 | HMKEPIYQTILSALILELNTNHFRKNDPFYSESELRKKYQVSSTTVVRVLNMLADQGYIYRIQGKGSFVSK | -0.5

Row | Sequence | soluble fraction (log2)
47 | HMKESFAQLFSLLTPTEQKVAALISQGFSNKDIAAKMFISLSTVKTHTNHIFAKMGVANRNALVAKVNN | -0.0677
48 | HMKESRFDYDAVLLYSDKDSITEVKDAVQHLTKEFGSVFTTKKIPEKATFGKLFRIEKGEVNIIEDN | -1.22
49 | HMKESRLFRILYYLLQHKKATAPELAEEFEVSVRTIYRDIDYISSAGVPIYATQGKDGGIAILDSF | -0.81
50 | HMKETLSINSTDFEVRRSSRRKRISVGFDTGTETFFIAAPTKLAGTDILRILGPQISRLMDRLT | -0.808
51 | HMKEVDERPWGKYEVLLDAPDVKVKRITVNPGQRLSYQYHEKRAEVWTVVSGILTIILEDDKLFRG | 0.0694
52 | HMKFIPPSLEEARAYFVEKGSSEPEAEKFVNHFDSIGWKVGRARTPMKKWKSAANNWIANNREWNQ | -0.166
53 | HMKFKDYYAALGIDRNADLEQIKKAYRKLARQYHPDVSKAPDAEARFKDAAEAYATLKNPEKRAAYDELGS | 0.22
54 | HMKFLHLADLHLGKRVNGFSMLEDQAYILRQILTILDDERPDGVLIAGDVYDKPVPPTEAVELLD | -0.632
55 | HMKFLYQKAREEIISLIQDGEIKPSEKIMPERELSELLGYNRMTIKKAINSLVAEGVLMKKRGAGTFLLG | -0.45
56 | HMKFLYQQVYQDIKDKITSAQYQFGDLLPSEREIGEEYHVDRTTVRKAFSLLVDEGLVEKRAGKGSVVIS | -0.52
57 | HMKFTELEQLMLKREINTLADIARVLKTTPQAVSNWKARDQIPYHIVAKINASINKDSNDSSLSI | -0.782
58 | HMKFTSEKDISLLELVKAKMGFVSNTKARNVIKIGQIMVSGKVIKIPSTLIKPGTEVELARRV | 0.32
59 | HMKFYKMIDESDEKIENPEIMIFQIIELVSSTTYSAIINKEPVDVETLKPYLYQTIRTIIINHQS | -0.582
60 | HMKGEKVTKIELSNFIKFLINDLENKGFFNPPEKKDSMIDNIYSIYNKMTLTKKELNMLWGMHKKLK | -0.676
61 | HMKGERHNKILELIQQHAIDRQEDLLRYLKEAGFQVTQATVSRDIRELHLVKVAAGGGQYRYVSAAAAS | -0.255
62 | HMKGIHDYITKDGLRVVKVHYSADPDKDVTTVEGKKWMAKALLGYPGGLEGAKWRREMEIDFNA | -0.258
63 | HMKGILVPASSIISDGDKNYVWTVEKGKAKKVEVTLGNADAENQEISSGLTKDSKVITNPTDSLKDGQEV | 0.269
64 | HMKGKDLQDAVVTVVGGAENWNAIRAWAQASASDSEKREINAAFQSGKLMATMMAERLALAYQQSG | 0.0105
65 | HMKGKITTNWVSLTSDLGWLRSELYSSGSVLEERISNEGLIELHLENFQNDLIKLLEVEGFDLIKE | -1.73
66 | HMKGQLVVFPNPASSNDMVRFNKNISFSIFDITGHLVDTKRNVNELSVGNLEAGTYILRTEQGDVLRMVI | -0.904
67 | HMKGRPTTAIITDERTNLRSGPGATNKTIAQAGAGEKLAIIDEKDGWYQVSRAGINGWVAGWVIDVAW | -0.945
68 | HMKGSIFLDEATKMVDNSALKSLNTFLEEYARETNNQIFLISHQETPAEVTQIKLKKVGGETSYE | -0.0644
69 | HMKGSPFSQLPKEKKKRILQAAIEVFAQNDYKHASTDEIASRAGISKGLLFYYFHDKKTLYFYLGEYLKR | 0.173
